For one assay, the target named is TAP-LSD1 (UniProt O60341 1-852). In words: TAP-LSD1 complexes immobilised on IgG sepharose, Western blot. An excerpt:
Protein complexes were immobilised on IgG, sepharose, released from IgG sepharose by TEV protease cleavage of the TAP tag, followed by immunoprecipitation of Flag-tagged AR with α-Flag antibody. […] Ten percent of the extract used for immunoprecipitation was loaded as input.
LSD1 associated complexes were released from IgG sepharose by TEV protease cleavage of the TAP-tag followed by immunoprecipitation of Flag-tagged AR with α-Flag antibody. […] We applied the TAP-based co-purification strategy because the moderate expression levels of the endogenous proteins would only have allowed a limited number of purification steps.

Another assay has as its target T1, GFP-JHDM2A (UniProt Q9Y4C1 1-1321).
T1 construct: not shown: GFP fusion partner
T1 sequence (looked up): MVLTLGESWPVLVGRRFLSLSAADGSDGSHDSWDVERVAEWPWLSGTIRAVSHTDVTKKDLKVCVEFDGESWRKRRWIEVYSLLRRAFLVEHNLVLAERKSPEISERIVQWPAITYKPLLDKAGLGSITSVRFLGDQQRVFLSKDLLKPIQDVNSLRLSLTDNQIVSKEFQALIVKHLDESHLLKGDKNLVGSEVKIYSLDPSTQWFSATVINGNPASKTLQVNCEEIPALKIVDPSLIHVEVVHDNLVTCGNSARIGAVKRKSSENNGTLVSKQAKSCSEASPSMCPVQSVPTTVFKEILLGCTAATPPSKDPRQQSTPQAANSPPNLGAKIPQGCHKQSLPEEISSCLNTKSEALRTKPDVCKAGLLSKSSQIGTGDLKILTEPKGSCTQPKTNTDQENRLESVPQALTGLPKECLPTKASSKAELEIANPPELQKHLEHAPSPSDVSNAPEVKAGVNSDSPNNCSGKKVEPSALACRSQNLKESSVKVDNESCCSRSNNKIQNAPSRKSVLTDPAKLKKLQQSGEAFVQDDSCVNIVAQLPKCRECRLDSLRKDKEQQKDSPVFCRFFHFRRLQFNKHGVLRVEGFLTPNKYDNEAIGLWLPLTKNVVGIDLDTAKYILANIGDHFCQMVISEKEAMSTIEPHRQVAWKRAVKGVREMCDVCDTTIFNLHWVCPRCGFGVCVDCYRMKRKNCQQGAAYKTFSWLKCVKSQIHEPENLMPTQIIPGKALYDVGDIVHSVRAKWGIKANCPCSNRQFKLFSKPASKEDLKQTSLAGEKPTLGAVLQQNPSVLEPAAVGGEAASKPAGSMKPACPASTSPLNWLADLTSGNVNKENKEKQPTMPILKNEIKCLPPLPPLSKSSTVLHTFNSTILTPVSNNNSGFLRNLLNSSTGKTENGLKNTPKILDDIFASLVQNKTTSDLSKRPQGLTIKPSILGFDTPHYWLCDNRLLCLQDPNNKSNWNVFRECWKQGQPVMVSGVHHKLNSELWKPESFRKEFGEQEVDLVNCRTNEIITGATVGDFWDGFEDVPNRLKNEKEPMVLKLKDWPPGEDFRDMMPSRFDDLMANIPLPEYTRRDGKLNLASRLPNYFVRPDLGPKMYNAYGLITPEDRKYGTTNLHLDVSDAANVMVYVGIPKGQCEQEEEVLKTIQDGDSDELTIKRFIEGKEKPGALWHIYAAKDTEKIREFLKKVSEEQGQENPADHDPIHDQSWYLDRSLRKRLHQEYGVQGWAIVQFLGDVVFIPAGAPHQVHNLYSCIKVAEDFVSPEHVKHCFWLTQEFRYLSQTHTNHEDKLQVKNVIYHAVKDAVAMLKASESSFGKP
In words: co-immunoprecipitation with α-Flag from transfected 293 cells, Western blot with α-GFP. An excerpt: Extracts were immunoprecipitated with α-Flag antibody. Twenty percent of the extract used for immunoprecipitation was loaded as input. Western blots were decorated with α-GFP (Santa Cruz; 1:500) or α-Flag antibody (1:2500).
Background: In western blotting, separated proteins are transferred to a membrane and probed.

In assay [1] the target is LSD1 (endogenous, LNCaP cells) (human, UniProt O60341 1-852). In words: Re-ChIP in LNCaP cells.
Procedure: LNCaP cells were incubated with or without the AR agonist R1881 (a, b), and transfected with stealth RNAi (b). ChIP or Re-ChIP was performed with the indicated antibodies. The precipitated chromatin was amplified by PCR using primers flanking the promoter region (ARE I+II) and the enhancer region (ARE III) of the PSA gene, the promoter region (ARE) of the KLK2 gene, or the promoters of the unrelated GAPDH and U6 genes. […] Western blots were decorated with the indicated antibodies against α-mono-, α-di-, or α-trimethyl H3K9.
ChIP experiments were performed as described[3]. LNCaP cells were treated for 45 min (FIG. 2a) or 210 min in the presence or absence of 10^-8 M R1881 as indicated. LNCaP cells were transfected three days before harvesting for ChIP with or without stealth RNAi (Invitrogen) following the manufacturer's instructions. […] For PCR, 1-5 µl out of 50 d DNA extract was used. For Re-ChIP assays, immunoprecipitations were sequentially washed with TSE I, TSE II, buffer III, and TE[20]. Complexes were eluted by incubation with 10 mM DTT at 37° C. for 30 minutes, diluted 50 times with dilution buffer[20] followed by a second immunoprecipitation with the indicated antibodies.

Consider 4 molecules from patent publication US8293494 (UNIVERSITATSKLINIKUM FREIBURG, dated 2012).

B1: V5-JMJD2C (enzyme)
chain: MEVAEVESPLNPSCKIMTFRPSMEEFREFNKYLAYMESKGAHRAGLAKVIPPKEWKPRQCYDDIDNLLIPAPIQQMVTGQSGLFTQYNIQKKAMTVKEFRQLANSGKYCTPRYLDYEDLERKYWKNLTFVAPIYGADINGSIYDEGVDEWNIARLNTVLDVVEEECGISIEGVNTPYLYFGMWKTTFAWHTEDMDLYSINYLHFGEPKSWYAIPPEHGKRLERLAQGFFPSSSQGCDAFLRHKMTLISPSVLKKYGIPFDKITQEAGEFMITFPYGYHAGFNHGFNCAESTNFATVRWIDYGKVAKLCTCRKDMVKISMDIFVRKFQPDRYQLWKQGKDIYTIDHTKPTPASTPEVKAWLQRRRKVRKASRSFQCARSTSKRPKADEEEEVSDEVDGAEVPNPDSVTDDLKVSEKSEAAVKLRNTEASSEEESSASRMQVEQNLSDHIKLSGNSCLSTSVTEDIKTEDDKAYAYRSVPSISSEADDSIPLSSGYEKPEKSDPSELSWPKSPESCSSVAESNGVLTEGEESDVESHGNGLEPGEIPAVPSGERNSFKVPSIAEGENKTSKSWRHPLSRPPARSPMTLVKQQAPSDEELPEVLSIEEEVEETESWAKPLIHLWQTKSPNFAAEQEYNATVARMKPHCAICTLLMPYHKPDSSNEENDARWETKLDEVVTSEGKTKPLIPEMCFIYSEENIEYSPPNAFLEEDGTSLLISCAKCCVRVHASCYGIPSHEICDGWLCARCKRNAWTAECCLCNLRGGALKQTKNNKWAHVMCAVAVPEVRFTNVPERTQIDVGRIPLQRLKLKCIFCRHRVKRVSGACIQCSYGRCPASFHVTCAHAAGVLMEPDDWPYVVNITCFRHKVNPNVKSKACEKVISVGQTVITKHRNTRYYSCRVMAVTSQTFYEVMFDDGSFSRDTFPEDIVSRDCLKLGPPAEGEVVQVKWPDGKLYGAKYFGSNIAHMYQVEFEDGSQIAMKREDIYTLDEELPKRVKARFSTASDMRFEDTFYGADIIQGERKRQRVLSSRFKNEYVADPVYRTFLKSSFQKKCQKRQ
notes: also called CMX-DEST51-JMJD2C; not shown: V5 tag
Regarding B1, the binding result with TAP-LSD1 was “binds”.

B2: Flag-JMJD2C (enzyme, human, UniProt Q9H3R0 1-1056, looked up)
chain: B1 chain
notes: also called CMX-Flag-JMJD2C; not shown: Flag tag
For B2, in the assay with GFP-JHDM2A, the binding result is “no binding”.

B3: JMJD2C (endogenous, LNCaP cells) (enzyme)
chain: B1 chain
notes: Endogenous protein, on chromatin (ChIP / Re-ChIP)
For B3, the binding result in assay [1] is “binds”.

B4: Flag-AR (receptor)
chain: MEVQLGLGRVYPRPPSKTYRGAFQNLFQSVREVIQNPGPRHPEAASAAPPGASLLLLQQQQQQQQQQQQQQQQQQQQQQQETSPRQQQQQQGEDGSPQAHRRGPTGYLVLDEEQQPSQPQSALECHPERGCVPEPGAAVAASKGLPQQLPAPPDEDDSAAPSTLSLLGPTFPGLSSCSADLKDILSEASTMQLLQQQQQEAVSEGSSSGRAREASGAPTSSKDNYLGGTSTISDNAKELCKAVSVSMGLGVEALEHLSPGEQLRGDCMYAPLLGVPPAVRPTPCAPLAECKGSLLDDSAGKSTEDTAEYSPFKGGYTKGLEGESLGCSGSAAAGSSGTLELPSTLSLYKSGALDEAAAYQSRDYYNFPLALAGPPPPPPPPHPHARIKLENPLDYGSAWAAAAAQCRYGDLASLHGAGAAGPGSGSPSAAASSSWHTLFTAEEGQLYGPCGGGGGGGGGGGGGGGGGGGGGGGEAGAVAPYGYTRPPQGLAGQESDFTAPDVWYPGGMVSRVPYPSPTCVKSEMGPWMDSYSGPYGDMRLETARDHVLPIDYYFPPQKTCLICGDEASGCHYGALTCGSCKVFFKRAAEGKQKYLCASRNDCTIDKFRRKNCPSCRLRKCYEAGMTLGARKLKKLGNLKLQEEGEASSTTSPTEETTQKLTVSHIEGYECQPIFLNVLEAIEPGVVCAGHDNNQPDSFAALLSSLNELGERQLVHVVKWAKALPGFRNLHVDDQMAVIQYSWMGLMVFAMGWRSFTNVNSRMLYFAPDLVFNEYRMHKSRMYSQCVRMRHLSQEFGWLQITPQEFLCMKALLLFSIIPVDGLKNQKFFDELRMNYIKELDRIIACKRKNPTSCSRRFYQLTKLLDSVQPIARELHQFTFDLLIKSHMVSVDFPEMMAEIISVQVPKILSGKVKPIYFHTQ
notes: Plasmid described previously; Assays in the presence of R1881; also called Flag-tagged AR; not shown: Flag tag
Consider B4, for which the binding result in the assay with TAP-LSD1 is “binds”.
